Assay results reported in patent US20190264194A1 (published 2019).

target: T1, human C-reactive protein (human, UniProt P02741 19-224); assay: selection from the E. coli display library
T1 construct: Biotinylated or labelled with Alexa Fluor 488; also called CRP; C-RP
T1 sequence (looked up): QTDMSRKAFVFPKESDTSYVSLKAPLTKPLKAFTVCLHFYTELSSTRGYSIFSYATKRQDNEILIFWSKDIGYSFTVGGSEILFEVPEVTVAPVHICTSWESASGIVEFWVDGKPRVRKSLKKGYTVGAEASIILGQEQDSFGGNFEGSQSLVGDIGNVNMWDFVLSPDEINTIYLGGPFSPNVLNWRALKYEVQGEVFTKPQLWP
Experimental: The library was first depleted of streptavidin binding peptides by incubation with streptavidin coated microbeads, e.g., from Qiagen, Inc. (Valencia, Calif.). Then the library was incubated with biotinylated human C-reactive protein at 10 nM final concentration, and two rounds of magnetic selection were used to enrich CRP binding peptides. […] Equilibrium binding affinities were measured in the whole cell format, by determining cell fluorescence at various concentrations of target CRP. See e.g. FIG. 17.

Binder | binding result
TTCKYYLSCRWRKDL [SEQ ID NO 246] | binds
TDFLSYYRVYRTPLQ [SEQ ID NO 248] | binds
TFMPSYYRSWGPPPT [SEQ ID NO 249] | binds
RYIMNHRGFYIFVPR [SEQ ID NO 250] | binds
LMNWRGFMVPRESPK [SEQ ID NO 251] | binds
PYLNARGFSVTREQI [SEQ ID NO 252] | binds
WTKLKNSRGFELQLD [SEQ ID NO 254] | binds

target: T2, streptavidin (UniProt P22629 37-163, limits assumed); assay: selection from the X4CX3CX4 library displayed in loop 2 of OmpX
T2 construct: Used as phycoerythrin conjugate or on coated beads; also called SA; streptavidin-phycoerythrin

Binder | binding result
QSLVCQNVCWMRE [SEQ ID NO 276] | binds
CMIICQNVCYRKC [SEQ ID NO 277] | binds
KALVCQNVCYTMS [SEQ ID NO 278] | binds
SKWICQNVCYPGL [SEQ ID NO 279] | binds
GTLVCMNFCYLSK [SEQ ID NO 280] | binds
PTLICMNVCFYDQ [SEQ ID NO 281] | binds
SHWFCVNVCFRIQ [SEQ ID NO 282] | binds
TYSWCANVCMHYS [SEQ ID NO 283] | binds
TRLICANLCWYAE [SEQ ID NO 284] | binds

target: T2, streptavidin; assay: selection from the XCCX4CX7CX library displayed in loop 2 of OmpX

Binder | binding result
YCCHPQVCFLGHRAACP [SEQ ID NO 267] | binds
WCCHPQVCSLSLAYKCQ [SEQ ID NO 268] | binds
ICCHPQVCAWNRVFLCK [SEQ ID NO 269] | binds
ICCHPQVCSGLNRFRCG [SEQ ID NO 270] | binds
WCCHPQVCHRAMVRNCI [SEQ ID NO 271] | binds
ACCHPQVCVMALPYHCL [SEQ ID NO 272] | binds
LCCHPQVCASAGYYACY [SEQ ID NO 273] | binds
LCCHPQNCVSFRHVECR [SEQ ID NO 274] | binds
ICCHPQWCGLTVWWPCK [SEQ ID NO 275] | binds

target: T1, human C-reactive protein; assay: apparent whole-cell KD, flow cytometry with CRP-Alexa Fluor 488
Experimental: (§1) To obtain equilibrium binding curves, cells were labeled over a range of concentrations, e.g., about 0.1 to about 200 nM, of fluorescently conjugated target proteins (streptavidin-phycoerythrin or CRP-Alexa Fluor® 488) and analyzed by flow cytometry, as above. The corresponding mean fluorescence versus concentration data were fit to a monovalent binding isotherm to obtain the apparent KD. Dissociation rates of streptavidin-binding clones were measured in the presence of about 1 to about 2 μM biotin. Cells were labeled with 50 nM streptavidin-phycoerythrin for 30 minutes at room temperature. The cells were then pelleted, resuspended in PBS with biotin, and immediately analyzed by flow cytometry. Fluorescence data were collected continuously for about five minutes. The dissociation rate constants were then determined as described previously. See Daugherty, P. S., et al. (1998) Protein Eng. 11(9):825-832, which is herein incorporated by reference.

Binder | Kd
FPIYNQRGFITLASP (Insert only) [CRP-2] | 3 nM
MIFNSRGFLSLMSSG (Insert only) [CRP-6] | 8 nM
YPPRFQYYRFYYRGP (Insert only) [CRP-10] | 5 nM

target: T2, streptavidin; assay: whole-cell dissociation by flow cytometry, 1-2 uM biotin as competitor
Experimental: The apparent binding affinities of a subset of the selected peptides were determined using flow cytometric analysis. […] See Daugherty, P. S., et al. (1998) Protein Eng. 11(9):825-832, which is herein incorporated by reference. […] See Daugherty, P. S., et al. (1998) Protein Eng. 11(9):825-832; and Feldhaus, M. J., et al. (2003) Nat. Biotechnol. 21(2): 163-170, which are herein incorporated by reference. […] Apparent dissociation rate constants (kdiss) were determined for streptavidin, using about 1 to about 2 μM biotin as a competitor to prevent re-binding.
as §1

Binder | koff
RLEICQNVCYYLGTL (Insert only; also called SA-1 pep) [SA-1] | ~0.001 s⁻¹
IMMECFYVCTIANTQ (Insert only) [SA-8] | ~0.01 s⁻¹
SITICWYTCMVQKTA (Insert only) [SA-10] | ~0.01 s⁻¹
ADTICWYVCTISVHA (Insert only) [SA-11] | ~0.01 s⁻¹
ICSYVMYTTCFLRVY (Insert only) [SA-2] | ~0.001 s⁻¹
VTSLCMNVCYSLTTY (Insert only) [SA-4] | ~0.001 s⁻¹
YWVCMNVCMYYTARQ (Insert only) [SA-5] | ~0.001 s⁻¹
LPVWCVMHVCLTSSR (Insert only) [SA-6] | ~0.001 s⁻¹

target: T2, streptavidin; assay: apparent whole-cell KD, flow cytometry with streptavidin-phycoerythrin
Experimental: as §1

Binder | Kd
RLEICQNVCYYLGTL (Insert only; also called SA-1 pep) [SA-1] | 10 nM
ICSYVMYTTCFLRVY (Insert only) [SA-2] | 8 nM

target: T1, human C-reactive protein; assay: clones isolated by MACS and FACS from the E. coli OmpA loop 1 15-mer library

Binder | binding result
HMRWNTRGFLYPAMS (Insert only) [CRP-3] | binds
RYIMNHRGFYIFVPR (Insert only) [CRP-4] | binds
VRTWNDRGFQQSVDR (Insert only) [CRP-5] | binds
LMNWRGFMVPRESPK (Insert only) [CRP-7] | binds
WTKLKNSRGFELQLD (Insert only) [CRP-8] | binds
PYLNARGFSVTREQI (Insert only) [CRP-9] | binds
TDFLSYYRVYRTPLQ (Insert only) [CRP-11] | binds
TFMPSYYRSWGPPPT (Insert only) [CRP-12] | binds
TTCKYYLSCRWRKDL (Insert only) [CRP-13] | binds

target: T3, human serum albumin (human, UniProt P02768 25-609); assay: as above
T3 construct: Biotinylated or FITC-conjugated; also called HSA

Binder | binding result
NPFCSWYRWRNWCTK (Insert only) [HSA-1] | binds
RHLYCWTWRWCHFKD (Insert only) [HSA-2] | binds
SYISTWLNFLFCGQS (Insert only) [HSA-3] | binds
NNYSAWLRCLLRAYS (Insert only) [HSA-4] | binds
